Source: the Human Domainome abundance scans (Beltran et al. 2025)
± gives the uncertainty stated by the source.

B1: Histone-lysine N-methyltransferase SETD2, residues 2382 to 2430; numbered along this chain, Q9BYW2 (parent)
chain: SPPKPKTIVLPPNWKTARDPEGKIYYYHVITRQTQWDPPTWESPGDDAS

Variants of: B1
Experiment: abundance fitness (aPCA) (normalised: wild type 0, dead -1); higher = more abundant; growth selection in yeast, the domain comes from the species named
Conditions: Homo sapiens

Abundance fitness: each site, then its substitutions
R18: P -0.576 ± 0.17; S -0.543 ± 0.035; K -0.072 ± 0.062; Q -0.482 ± 0.14; F -0.424 ± 0.094; L -0.404 ± 0.045; M -0.086 ± 0.059; E -0.248 ± 0.1; W -0.31 ± 0.095; N 0.099 ± 0.2; A -0.467 ± 0.07; H -0.286 ± 0.26; D -0.817 ± 0.31; G -0.79 ± 0.095; Y -0.105 ± 0.062; T -0.112 ± 0.055; V -0.26 ± 0.066; I -0.095 ± 0.15
K23: W -0.789 ± 0.047; T -0.147 ± 0.044; Q -0.28 ± 0.09; H -0.686 ± 0.28; Y -0.316 ± 0.11; E -0.433 ± 0.12; N -0.563 ± 0.14; F -0.619 ± 0.15; G -0.243 ± 0.035; A -0.288 ± 0.076; D -0.493 ± 0.047; V -0.303 ± 0.054; S -0.279 ± 0.073; C -0.402 ± 0.094; M -0.514 ± 0.08; L -0.457 ± 0.035; I -0.447 ± 0.14; R 0.029 ± 0.034
T31: I -0.945 ± 0.13; Y -0.831 ± 0.27; D -0.724 ± 0.25; P -0.785 ± 0.047; K -0.651 ± 0.067; M -0.862 ± 0.11; W -1.06 ± 0.077; G -0.927 ± 0.088; L -0.748 ± 0.099; Q -0.627 ± 0.084; R -0.502 ± 0.037; A -0.742 ± 0.11; E -0.735 ± 0.048; N -0.798 ± 0.23; H -0.761 ± 0.17; S -0.131 ± 0.064
T16: Q 0.136 ± 0.064; S 0.168 ± 0.035; L 0.049 ± 0.048; P -0.341 ± 0.12; Y -0.164 ± 0.1; H 0.095 ± 0.11; D -0.47 ± 0.091; R -0.052 ± 0.045; N -0.723 ± 0.15; G -0.203 ± 0.057; C -0.213 ± 0.12; W -0.026 ± 0.052; M 0.218 ± 0.039; I -0.15 ± 0.075; A 0.027 ± 0.041; K -0.059 ± 0.092
Y27: R -0.265 ± 0.052; V -0.173 ± 0.049; L -0.534 ± 0.054; T -0.185 ± 0.075; Q -0.136 ± 0.081; P -0.898 ± 0.089; F -0.487 ± 0.15; D -0.446 ± 0.11; M -0.339 ± 0.046; S -0.433 ± 0.052; C -0.543 ± 0.093; E -0.3 ± 0.038; G -0.747 ± 0.067; W -0.163 ± 0.062; K -0.261 ± 0.082; H -0.293 ± 0.041
R32: Q -0.022 ± 0.039; C -0.357 ± 0.049; A -0.304 ± 0.063; S -0.363 ± 0.058; Y -0.215 ± 0.091; H -0.131 ± 0.1; F -0.691 ± 0.21; P -0.617 ± 0.057; K 0.13 ± 0.076; G -0.173 ± 0.042; V -1.01 ± 0.14; L -0.315 ± 0.039; D -0.027 ± 0.097; M -0.15 ± 0.069; N 0.031 ± 0.1; W -0.848 ± 0.05; I -0.997 ± 0.39; E -0.197 ± 0.085; T -1.01 ± 0.27
P20: T 0.006 ± 0.033; H -0.157 ± 0.038; R 0.017 ± 0.032; C -0.348 ± 0.043; Q 0.015 ± 0.045; A -0.166 ± 0.031; Y -0.331 ± 0.052; W -0.367 ± 0.054; D -0.122 ± 0.038; M -0.078 ± 0.034; V -0.31 ± 0.033; L -0.223 ± 0.032; I -0.165 ± 0.045; F -0.398 ± 0.059; S -0.106 ± 0.036; K 0.122 ± 0.039; G -0.03 ± 0.031; E -0.074 ± 0.053; N -0.008 ± 0.035
H28: M -1.01 ± 0.29; K -0.971 ± 0.12; L -1.09 ± 0.17; Y -0.6 ± 0.33; G -1.01 ± 0.12; W -1.05 ± 0.12; F -0.94 ± 0.37; V -0.991 ± 0.16; Q -0.64 ± 0.18; C -0.792 ± 0.21; A -1.06 ± 0.072; R -1.03 ± 0.12; N 0.023 ± 0.19; E -0.689 ± 0.17; S -0.767 ± 0.065; D -0.213 ± 0.059
D19: A -0.537 ± 0.096; C -0.725 ± 0.16; P -0.426 ± 0.1; L -0.407 ± 0.068; I -0.584 ± 0.26; Y -0.601 ± 0.095; H 0.027 ± 0.2; Q -0.442 ± 0.039; E -0.314 ± 0.08; T 0.102 ± 0.069; M -0.172 ± 0.089; W -0.889 ± 0.095; S -0.103 ± 0.043; R -0.535 ± 0.042; V -0.404 ± 0.048
Y25: A -0.642 ± 0.072; H -0.419 ± 0.12; L -0.358 ± 0.047; Q -0.454 ± 0.1; K -0.569 ± 0.089; F -0.227 ± 0.12; I -0.38 ± 0.11; G -0.844 ± 0.051; D -0.485 ± 0.11; P -0.784 ± 0.17; S -0.628 ± 0.066; W -0.907 ± 0.13; C -0.538 ± 0.077; T -0.73 ± 0.14; N -0.911 ± 0.17; V -0.395 ± 0.039; R -0.628 ± 0.049; M -0.56 ± 0.047
V29: N -0.644 ± 0.26; G -0.309 ± 0.039; W -0.564 ± 0.068; Q -0.018 ± 0.078; T 0.145 ± 0.077; L -0.287 ± 0.053; K -0.255 ± 0.034; S -0.002 ± 0.035; C -0.074 ± 0.064; Y -0.258 ± 0.12; E 0.139 ± 0.057; M 0.079 ± 0.087; A 0.011 ± 0.055; H -0.208 ± 0.12; R -0.428 ± 0.05
Y26: H -0.618 ± 0.13; T -0.637 ± 0.15; N -0.517 ± 0.24; M -0.694 ± 0.12; I -0.782 ± 0.28; W -0.498 ± 0.091; Q -0.777 ± 0.12; P -0.765 ± 0.057; L -0.878 ± 0.088; F -0.315 ± 0.12; S -0.786 ± 0.13; V -0.585 ± 0.074; E -0.981 ± 0.077; C -0.853 ± 0.3; G -0.934 ± 0.1; K -0.655 ± 0.18; A -0.865 ± 0.059; D -0.553 ± 0.21
I30: H -0.068 ± 0.088; E -0.307 ± 0.044; N -0.046 ± 0.12; C -0.498 ± 0.04; F -0.361 ± 0.2; D -0.21 ± 0.08; M -0.19 ± 0.034; Y -0.244 ± 0.12; W -0.447 ± 0.09; R -0.018 ± 0.046; S -0.344 ± 0.06; K -0.144 ± 0.052; T -0.013 ± 0.07; A -0.314 ± 0.057; G -0.313 ± 0.041; Q -0.268 ± 0.11; P -0.08 ± 0.042; L -0.087 ± 0.046
A17: K -0.131 ± 0.1; Y -0.128 ± 0.07; E -0.301 ± 0.061; N 0.038 ± 0.14; C -0.146 ± 0.078; D -0.092 ± 0.054; V -0.242 ± 0.045; F -0.543 ± 0.15; T -0.217 ± 0.074; H -0.728 ± 0.41; L -0.212 ± 0.066; P -0.747 ± 0.042; G -0.022 ± 0.034; R 0.023 ± 0.036; W -0.77 ± 0.13; S -0.155 ± 0.058; Q -0.845 ± 0.28; I -0.184 ± 0.05; M -0.024 ± 0.08
I24: Y -0.336 ± 0.33; H -0.549 ± 0.48; W -0.123 ± 0.27; A -0.253 ± 0.23; T -0.228 ± 0.41; V -0.406 ± 0.27; G -0.578 ± 0.22
Q33: G -0.798 ± 0.064; A -0.149 ± 0.051; M -0.614 ± 0.12; E 0.099 ± 0.059; K -0.401 ± 0.12; V -0.251 ± 0.038; H -0.578 ± 0.14; W -0.751 ± 0.054; P -0.904 ± 0.075; C -0.251 ± 0.048; D -0.185 ± 0.087; R -0.318 ± 0.056; N -0.117 ± 0.14; T -0.13 ± 0.087; I -0.551 ± 0.17; F -0.906 ± 0.28; L -0.411 ± 0.038
G22: H -0.484 ± 0.16; Q -0.841 ± 0.18; A -0.844 ± 0.12; C -0.882 ± 0.17; V -0.782 ± 0.088; R -0.607 ± 0.059; E -1.1 ± 0.19; M -0.636 ± 0.14; S -0.297 ± 0.07; L -0.593 ± 0.11; N -0.555 ± 0.32; I -0.753 ± 0.29; F -0.733 ± 0.36; T -1.02 ± 0.078; K -0.482 ± 0.076; D -0.128 ± 0.079; W -0.224 ± 0.093
E21: V -0.275 ± 0.093; A -0.126 ± 0.065; I -0.316 ± 0.21; P -0.989 ± 0.14; Y -0.552 ± 0.18; W -0.345 ± 0.048; L -0.487 ± 0.035; G -0.003 ± 0.035; M -0.059 ± 0.06; K 0.134 ± 0.068; D -0.136 ± 0.12; H -0.737 ± 0.28; T -0.229 ± 0.095; F -0.115 ± 0.17; C -0.134 ± 0.11; Q -0.217 ± 0.063; S 0.098 ± 0.039; R -0.043 ± 0.053
K15: Q -0.291 ± 0.26; R 0.11 ± 0.39; H -0.153 ± 0.41
T34: C -0.109 ± 0.1; A -0.296 ± 0.067; D -0.774 ± 0.055
W14: C -1.02 ± 0.3; D -0.74 ± 0.36; M -0.721 ± 0.2; S -0.925 ± 0.1; A -0.865 ± 0.054; Y -0.566 ± 0.42; Q -0.763 ± 0.24; V -0.882 ± 0.097; H -0.615 ± 0.22; G -0.855 ± 0.086; T -0.935 ± 0.19; L -0.925 ± 0.06; P -1.03 ± 0.32; E -0.868 ± 0.078
N13: S -0.362 ± 0.078; T -0.123 ± 0.078; H -0.052 ± 0.039; E -0.61 ± 0.15; D -0.059 ± 0.075; Q -0.148 ± 0.13; V -0.523 ± 0.075; W -0.144 ± 0.097; M 0.064 ± 0.094; P -0.692 ± 0.084; G -0.191 ± 0.055; F 0.127 ± 0.082; Y 0.107 ± 0.075; L -0.039 ± 0.049
